Assay: soluble fraction after stress (log2 fold change); higher = more stays soluble; pooled small domains, quantitative proteomics
Details: stress: pH 4
In short: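 Pooled custom libraries of small protein domains were subjected to pH 4 and measured by high-throughput quantitative proteomics. The log2 fold change in soluble amount per domain is reported, higher values meaning more remained soluble. This is used as a measure of aggregation propensity.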

Sequence	soluble fraction (log2)
HMAKPAALLFEHRFDGMAEMRFRENIVKNDDGSYTYDEYFLSMLDRAGLEKIVQENMEVWIAYAKQ	-1.42
HMAKPVKSPLPGSVIKVAVKVGQQIKRGDLLLTLESMKMENSILAEKDGVVKNIHVQAGQSVMQDDLLLDI	-0.957
HMAKPVNISAEPYHYDPTRFRVTFELPRLSDQPRKRIRKVAPAGLDREQALAWAKRLEREVLHELLR	-0.144
HMAKVSVNIILKDGVDQTTFVNDVTSNTEVDLKNQLISLPQMVVLSVEEDYINTLKSHSSISILELDE	-0.541
HMALALDDLFDRYEQLQDQSLGDKTEEGQELRAMIRAYIEQEGLSVRVTRSTTNRELLELIEQEMEG	-0.703
HMALENTDLYAHLRLSHTASVPEIQAALSARVKHMPLQTWLLARKWLLHPRLRERYDGMWSVRFGA	-0.136
HMALGRTGEVYLPIPAGRAGHGKISITLQGALREVDAVTAGEALPRGTSVRVVDVAGNGVLLVEK	0.32
HMALHDTLSYEEYLDLGLNGKADSAEKRELVAHALHLGRPNAKTLYKRLNMLQLNRKDVAALLEQ	0.299
HMALHLPTTTINGRQYYYFKSKEKITVYGLSKRLGLTRQEIVEHNPSAVDGIKRGSTLYFPVDEFAD	-0.074
HMALLKRQDEILMYLYTQNKWITGNELAQLFHVSLRTIRNDISFINTEKSNSVLSNRNKGYHIAKDFVYNE	-0.0758
HMALPDSEKRQWLVDEVNERGLKLPDDVLEYLFARVGRSQAHLVDVIEKLDFESLAQSRKLTIPFVREVLK	-0.753
HMALPRYFFRTRENGAVLFKTPVNNHQNRLEMHQIAAINIRNETVKPLGDTVLTDEETELIADWMRERKTV	-0.596
HMALSVRNRMSDLLRMLGDGEFHRFENLFSLEEGRHGIVVTFLAMLELAKEQLVEISQGESLAPIYLKSLA	-0.403
HMAMDVKEVLLPGVGLRYEFDNSDGDRIGVIAKRSGDFEVVRYTAADRDAAQPMFRLTDEEADALAQILGA	-0.487
HMAMDYYAIGQRIRKFRKAHDWSQEELAEKVEISTTHMSHIETGSTKLSLPVLVSLANVLDVRTDDLLF	-0.272
HMAMKFQDIVRQKRKELGLTQEQAARRLGVSPAAVSKWESGQSLPDTPLFAPLARLLHTDLNTLLSFE	-0.34
HMAMTQNVDLAGRIVFNEKKEEVFNFGKHKGRSVAEVFEKEPSYYDWMLKGDFPAETKQVLTALRLRGLS	-0.64
HMAMTRTEYLNQLKHYLKRLPHTDYEEAMDYFKEYFEEAGPENEAQVIQDLGNPKEAAYEILSQLL	-0.615
HMANDNFPLKLGSKGPRVLQLKTMLIQSLSNDALPKGRSSDAFDSELEALLSRNNLPTVIDETNFRVLTK	0.0149
HMANFGSILRNLRISRDITQSELAAKLGVSRSTVGMYETGAREPDFEAMEAIADTFNVDMDYLVGRSQ	-0.326
HMANLAQITKTNAVALALKDVGAYNSEDLMKFIDLDKVVLGEDGKPQLEDTINSLKESSPYLFQ	-0.843
HMANMTAKQINMFGDKLSRDKDFQSYYIAKSGDSREQYAQDIKGKLLDPFYVNAWMPYLEKIGFVPS	0.106
HMANPEFAGYINGKPYFGPTHQHRGVKMLGATHTRNPHPLVWDSIAESLANYDSRFRWSGGQIL	-0.203
HMANTAKVNVDTANLRETADENSKILKQLSLNDNLEVVEETGDWYKVKNSNVTGYVRKDLVTVEN	0.244
HMANTLDPMDLKQIISLHLDGFSNRKIGATLGISRNTVNTYMRLFSVSDYALKELLTLDNATLDKLFPS	-0.603

Sequence	soluble fraction (log2)
HMANYYEILGVKHDATEAEIKAAYKQAAKSAHPDAGGSNEKMQEVNAAWEVLGNAQKRAEYDARMA	0.349
HMAPAGGITRQDLFAWGLMGGEGSREKRQQLKKSLGLPSHLGTSGFLDALNLIATRDQVEALLHK	≥ 0.43
HMAPAILTVQVKPDKIREIIGPGGKMIRMIQSETNTRVEVDDSGLVKIAAVSKEEGEAALKMVSDITME	-0.177
HMAPDAPDGFVHRWIRAEMLGQEDKSNVHRRMQEGYELVRADEYPDSDLPVAEGRYAGIIGVGGLLLARF	-0.268
HMAPDDTAVWSAFIGWFRTAPDGPNPLGAYAAKLGEEGLDAAEVGRRMTVIVRLFAEKPEGAEVFYDRTYA	-0.456
HMAPDYYALLGVPRNATTAEVRKAFRGKALEQHPDRGGDEESFRLLSKAYDVLSDSERRKYYDRTG	0.14
HMAPEKLVHELVGLSLRAGNLDLLAATLSAHKTVLSKESTAEYVKAGLAIEPNHLPLRVLAEQDLGWS	-0.936
HMAPFVIQQGQDVRLISKGPGFAVSNDGKALTNAAEGQLARARTANGQTVSGIARQGGIIEIA	-0.068
HMAPGIGDSKYFSHIYEMKHIDTIIDNDKGDRLIEHFEIQDTPFIFTKHWTSAFGFSKRQQEIITDYLSYF	-0.0653
HMAPGVHVEALLPYTAGSLVSQIREYGNVDAVEYRDTGILLQADVDERLAAQIMDQALEDPV	-1.03
HMAPLADQIVDLLKEHDGFLPLHDNSSPEDIRATVGTSKKAFKQAIGGLFREKRIVIGPTGIRLIS	0.146
HMAPLATIHVSSLSQKPFYLYGTFEDRRGNHLFFLEQIMGENKSIPVAMPSSAINPKIHASLTPPKG	-0.0804
HMAPLQDENGDLTFSYNGKTYTVNVNSEEDRNSFAEDFNKENGKKFSWFKERAGLQHYVFYDTEM	-0.918
HMAPLVTLEADGNGAVKLSNLAGHSIREVAGALGGAGLSLIPVGSGTSWKQNPAPGTVLHSGDTVTVYF	0.22
HMAPPIQQQVESLMNSFAKIGVTVPMLESRLQHAMSAVTANELVMLRKIGASIRDGFATVAEQFPA	0.0598
HMAPPPPEGYIHRWIRESVMGFDDKKNLSARIREGFELVRAEEYPDYEAPTVMDGKHAGVIANGGLLLARF	-0.236
HMAPQQARAAKTRVKLLDAAATVVRRDGIQAMTLARVAEEAGVSKGGLLHHFGSKEELVTGMLEQ	-0.402
HMAPRASDALTERELDVLRVVADGASVAEAAEMLVVSRETVKKHLGNIYAKLGVHSKMQAVALLREEGV	-1.27
HMAPRKNIRLLRAAQDKAAAEGDHETVDAIRGQIAALIETLPVQYREEYLLQEKGRENGLKLAIENAAK	-0.214
HMAPSLQISLKQAIITAQQQHPGSKALNADFDGARGTPRYVIETLLPTGELRELTIDAQSGQVMEDHPDR	0.198
HMAPSPEGAAILRESVESVARDQVDRVALTMTARGYTTAEIAAALMVDRSTISRRLYAMRDRYHAQQDNAQ	-0.666
HMAPSVNEVAWAQKIIDAHAEAAAAGKGLVVVDGKLIENLHVEEAKQLLSLSDAIAKNDASNG	-0.31
HMAPTGTDRQTPHTRDELYLVLSGTGTFVNGDARHPFGPGDALFVPAGAEHRFEDFSDDFRTWVVFYGAEG	-0.734
HMAPVVAILTRQLPLPQAQQLAGQTALVRVVKGGPGNEAELEFAGQNIQVKLPPGRQLTAGEMVTVAFALS	-0.0882
HMAQASEPMLALIRLKWWEEQINSPVKGDSLPLLSQLNSHISAGYLSRSQVTSLIQRWQDYA	-1.18

Sequence	soluble fraction (log2)
HMAQFNELLFELRQDRKMTQEDLAKVLFVTSGTISNYENGVHLPDIEKLISLADFFGVTTDYLLG	-0.726
HMAQLKYEQIKSYLQAEAVKPESATRMPTVRELMRRFNVSLVTVNRALSELEHAKVIVRRQGAGIVAAQ	0.0424
HMAQLPADMSRVKSADVSDAQLREFVQKAQASGQTETQLFREFSRRGMPTNEINILRSRMVGLQNN	0.0928
HMAQLPPTATARATSDVSGLTASAALRTLLEQGFVPQIHGSGKVSRQHPPAGTLLEPGSTIQLFLEPS	≥ 0.43
HMAQLSDMLTYLRKRKGLSQQELANTLKISRSAIGMYETGKREPDLETLEVFADFYNVDMNTLTGKA	0.192
HMAQNILPGQKNAIKSLATSAGFSQQELDSYLSQNYGKTLNNLSQKEGASLISGLQDGSIKKP	0.0359
HMAQPIPSGSDIREAREAAGMNLRDFARMVGGGAIGTWSHYETGKPIRVKSISPEVWQRVRDFILQHGK	0.036
HMAQRAADEARTHEILGLLRQARAALDHGGTARAARLRASIAEKLPAAPALPAWFARQLEQVDSQLAELQD	-0.568
HMAQRFDLGDKLNPQSSEFEYLGTSSRTGVSTYRYKNVPTQLFFGRQIGDIVVGVRRGMITLTIYNL	0.146
HMAQSTALVNLAQAEINKRGLTQTEVQARLSEEGINVNSISPAEYPKYQKQILSILDQMQKEKQLSKEV	0.359
HMAQVDAVQQVLQAFPALRSGQSQHLSQVVAALRQRGILTVGTKTTAWFAQWASVFQLLPLQVPNRIRYQS	0.2
HMARGRETILLVEDEPAVRGLVHATLRLHGYTVLEARHGIEALLTSTKFVGPIHLLLTDVVMPQMS	0.265
HMARHIHFEVHVQQAGRWSIHAQFGAGQREKAIEEAKKIEKTPGFDSVKVVKETYDSDLGNHQDTTIYRGP	0.0508
HMARKTIFHSLLGELEQRIGRLPAGTILPAEQALADEYGVSKPTLRRALAELAEHGLITKENGIGSVVI	≥ 0.43
HMARLAGVDLPREKRIEIGLTYIYGIGLARSQEILKKAGINPDIRVKDLTDEQEQAIRNAMDGYIVEGDL	-0.0746
HMARLQEVVVRVPVEDGQTLAAIYREAEVIERADEGTGVLLTVRIPAPLLGRLRRLEGVHVQP	-0.348
HMARRLELEDIPVDEVLFTASRNLVDAIEVMDPSRQAPMIQPWLKQALEWAVGALGFSKEDAVATLTSD	-0.264
HMASAAHYEGVKTEGESDNDVITRVLTATGVTAEKDDIFVVKSLIADGKYSYTAYVYDGSVWAAMD	-0.541
HMASALDVALNDFAEMRKKMRKPLTDRALALTLSELEKLAPGNDEKKIAILNQSIQRGWQGVFPLK	0.0901
HMASDEVPGAGFKWREDVLLRVMEANGIDKSNRDDFVRHAVNFDDDDNNYLKKAEIEAAAAAWVESQSPA	-0.239
HMASDLPTVTIMGKTFYTYVAKKGESFFGIANRFGWDPELLVKTNRELETPLDKGALIYYPVPKKPK	-0.521
HMASIATLTVKALGGASDVVIRDKDGRIIWADRLPAGQSHRVFGHAPFNVAASHASRVQLSLLGKDVGRV	-0.147
HMASISDRIRLLRAESHMTQEEFGRIFGISKPTVSFYEHGKSVPNDQIKTAIARYFGVSVDYLLGVTD	-0.467
HMASKTGTITATSLNVRSGAATTYSILGTLSNGKTVTIYEESNGWYKINYNGGYGWVSKTYVSTG	-0.105
HMASLASVAYETLRQALDNFQYVPGDRFSESEVGQQLGMSRTPVREALVRLQREGYISVLPKMGWVVNQ	-0.953
